No end group written: not given here.
Molecular target: collagen
Assay: SPR, Biacore 2000; 1500 RU collagen amine-coupled to CM-3 chip, SILY injected at 100 µM to 1.5 µM; from on-off binding kinetics

Kd: 1.2 µM
B1: peptide … (peptide)
peptide: RRANAALKAGELYKSILYGC-NH2

Reference: patent publication US8846003
